# The RNAGym collection of RNA variant scans (doi:10.1073/pnas.2313332121)
# B1: TPR t1 (parent)
# chain: GACCAAUCUGCCCUCAGAGCUCGAGAACAUCUUCGGAUGCAGAGGAGGCAGGCUUCGGUGGCGCGAUAGCGCCAACGUCCUCAACCUCCAAUGCAUCCCACCACAUGAUGAUGCCUGAAGAGCCUUGGUUUUUUG
# Variants of: B1
# Assay: polymerase ribozyme fitness, log enrichment relative to wild type (log ratio); higher = more active; in vitro selection for triplet polymerase activity
# How it was run: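 After PCR construction and transcription, each subunit's mutant library from a heterodimeric triplet polymerase ribozyme was annealed with a biotinylated primer, the partner subunit and triplets. Incubation was frozen, at −7 °C, and extended constructs were gel-excised, bound to streptavidin beads and amplified by RT-PCR, in one selection round done in triplicate. Fitness is the logarithm of a genotype's enrichment divided by that of the wild type, from inverse-variance-weighted replicate averages of Illumina-sequenced inputs and outputs. The base of the logarithm is 2, and genotypes needed ≥10 input reads and ≥1 read per output.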
row,Variant,polymerase ribozyme fitness (log ratio)
1,GACCAAUCUGCCCUCAGAGCUCGAGAACAUCUUCGGAUGCAGCGGAGGCAGGCUUCGGUGGCGCGAUAGCGCCAACGUCCUCAACCUCCAAUGCAUCCCACCACAUGAUGAUGCCUGAAGAGCCUUGGUUCUUUG [A43C U131C],-1.94
2,GACCAAUCUGCCCUCAGAGCUCGAGAACAUCUUCGGAUGCAGCGGAGGCAGGCUUCGGUGGCGCGAUAGCGCCAACGUCCUCAACCUUCAAUGCAUCCCACCACAUGAUGAUGCCUGAAGAGCCUUGGUUUUUUG [A43C C88U],-2.23
3,GACCAAUCUGCCCUCAGAGCUCGAGAACAUCUUCGGAUGCAGCGGAGUCAGGCUUCGGUGGAGCGUUAGCGCCAACGUCCUCAACCUCCAAUGCAUCCCACCACAUGAUGAUGCCUGAAGAGACUUGGUUUUUUG [A43C G48U C62A A66U C123A],-6.8
4,GACCAAUCUGCCCUCAGAGCUCGAGAACAUCUUCGGAUGCAGCGGAUGCAGGCUUCGGUGGCGCGAUAGCGCCAACGUCCUCAACCUCCAAUGCAUCCCACCACAUGAUGAUGCCUGAAGAGCCUUGGUUUUUUG [A43C G47U],-3.64
5,GACCAAUCUGCCCUCAGAGCUCGAGAACAUCUUCGGAUGCAGCGGAGGCAGGCUUCGGUCGCGCGAUAGCGCCAACGUCCUCAACCUCCAAUGCAUCCCACCACAUGAUGAUGCCUGAAGAGCCUUGGUUGUUUG [A43C G60C U131G],-3.6
6,GACCAAUCUGCCCUCAGAGCUCGAGAACAUCUUCGGAUGCAGCGGAGGCAGGCUUCGGUGGCGCGAUAGCGUCAACGUCCUCAACCUCCAAUGCAUCCCUCCACAUGAUGAUGCCUGAAGAGCCUUGGUGUUUUG [A43C C72U A100U U130G],-4.41
7,GACCAAUCUGCCCUCAGAGCUCGAGAACAUCUUCGGAUGCAGCGGAGGCAGGCUUCGGUGGCGCGAUAGCGCCAACGCCCUCAACCUUCAAUACAUCCCACCACAUGAUGAUGCCUGAAGAGCCUUGGUUUUUUG [A43C U78C C88U G93A],-2.62
8,GACCAAUCUGCCCUCAGAGCUCGAGAACAUCUUCGGAUGCAGCGGAGGCAGGCUUAGGUGGCGCGUUAGCGCCAACGUCCUCAACCUCCAAUGCAUCCCACCACAUGAUGAAGCCUGAAGAGCCUUGGUUUUUUG [A43C C56A A66U U112A],-4.32
9,GACCAAUCUGCCCUCAGAGCUCGAGAACAUCUUCGGAUGCAGCGGAGGCAGGCUUCGGUGGCGCGAUAGCGCCAACUUCCUCAAGCUCCAAUGCAUCCCACCACAUGAUGAUGCCUGAAGAGCCUUGGUUUUUUG [A43C G77U C85G],-4.12
10,GACCAAUCUGCCCUCAGAGCUCGAGAACAUCUUCGGAUGCAGCGGAAGCAGGCUUCGGUGGCGCGAUAGCGCCAACGUCCUCAACCUCCAAUGCAUCCCACCACAUGAUGAUGCUCGAAGAGCCUUGGUUUUUUG [A43C G47A C115U U116C],-3.25
11,GACCAAUCUGCCCUCAGAGCUCGAGAACAUCUUCGGAUGCAGCGGAGGCAGGCUUCGGUGGCGCGAUAGCGCCAACGUCCUCAACCUCCAAUGCAUCCCAUCACAUGAUGAUGCCUGAAGAGCCUUGGUUUUUUG [A43C C101U],-2.75
12,GACCAAUCUGCCCUCAGAGCUCGAGAACAUCUUCGGAUGCAGCGGAGGCAGGCUUCGGUGGGGCGAUAGCGCCAACGUCCUCAACCUCCAAUGCAUCCCACCACAUGAUGAUGCCUGAAGAGCCUUGGUUUUUUG [A43C C62G],-5.4
13,GACCAAUCUGCCCUCAGAGCUCGAGAACAUCUUCGGAUGCAGCGGAGACAGGCUUUGGUGGCACGAUAGCGCCAACGUCCUCAACCUCCAAUGCAUCCCACCACAUGAUGAUUCCUGAAGAGCCCUGGUUAUUUG [A43C G48A C56U G63A G113U U125C U131A],-6.28
14,GACCAAUCUGCCCUCAGAGCUCGAGAACAUCUUCGGAUGCAGCGGAGGCAGGCUUCGGUGGCGCGAUAUCGCCAACGUCCUCAACCUCCAAUGCAUCCCACCACAUGAUAAUGCCUGAAGAGCCUUGGUUUUUUG [A43C G69U G110A],-1.54
15,GACCAAUCUGCCCUCAGAGCUCGAGAACAUCUUCGGAUGCAGCGGAGGCAGGCUUCGGUGGCGCGAUAGCGCCAACGUCCUCAACCUCCAAUGCAUCCCACCACAUGAUGAUGCCUGAAGAGCCAUGGUUUUUUG [A43C U125A],-2
16,GACCAAUCUGCCCUCAGAGCUCGAGAACAUCUUCGGAUGCAGCGGAGGCAGGCUUCGGUGGCACGAUAGCGCCAACGUCCUCAACCUCCAAUGCAUCCCACCACAUGAUGAUGGCUGAAGAGUCUUGGUUUUUUG [A43C G63A C114G C123U],-6.77
17,GACCAAUCUGCCCUCAGAGCUCGAGAACAUCUUCGGAUGCAGCGGAGGCAGGCUUCGGUGGCGCGAUAGCGCCAACGCCAUCAACCUCUAAUGCAUCCCACCACAUGAUGAUGCCUGAAGAGCCUUGGUUUUUUG [A43C U78C C80A C89U],-4.14
18,GACCAAUCUGCCCUCAGAGCUCGAGAACAUCUUCGGAUGCAGCGGAGGCAGGCUUCGGUGGCGCGAUAGCGACAACGUCCCCAACCUCCAAUGCAUCCCACCACAUGAUGAUGCCUGAAGAGCCUUGGUUUUUUG [A43C C72A U81C],-3.09
19,GACCAAUCUGCCCUCAGAGCUCGAGAACAUCUUCGGAUGCAGCUGAGGCAGGCUUCGGUGGCGCGAUAGCGCCAACGUCCUCAACCUCCAAUGCAUCCCACCACAUGAUGAUGCCUGAAGAGCCUUGGUUUUUUG [A43C G44U],-2.14
20,GACCAAUCUGCCCUCAGAGCUCGAGAACAUCUUCGGAUGCAGCGGAGGCAGGAUUAGGUGGUGCGAUAGCGCCAACGUCCUCAACCUCCAAUGCAUCCCACCACAUGAUGAUGCCUGAAGAGCCUUGGUUUUUUG [A43C C53A C56A C62U],-3.14
21,GACCAAUCUGCCCUCAGAGCUCGAGAACAUCUUCGGAUGCAGCGGAGGCAGGCUUCGGUGGCGCGAUAGCGCCAACAUCCUCAACCUCCAAUGCAUCCCACCACAUGAUGAUGCCUGAAGAGCCUUCGUUUUUUG [A43C G77A G127C],-3.5

row,Variant,polymerase ribozyme fitness (log ratio)
1,GACCAAUCUGCCCUCAGAGCUCGAGAACAUCUUCGGAUGCAGGGGAGGCGGGCUUCGGUUGCGCGAUAGCGCCAACGUCCUCAACCUCCAAUGCGUCCCACCACAUGAUGAUGCCUGAAGAGCCUUGGUUUCUUG [A43G A50G G60U A95G U132C],-3.96
2,GACCAAUCUGCCCUCAGAGCUCGAGAACAUCUUCGGAUGCAGCGGAGGCAGGCUUCGGUGGCGCGAUAGCGCCAACGUCCUCAACCCCAAUGCCAUCCCACCACAUGAUGAUGCCUGAAGAGCCGUGGUUUUUUG [A43C U87C C89A A91U U92G G93C U125G],-4.91
3,GACCAAUCUGCCCUCAGAGCUCGAGAACAUCUUCGGAUGCAGCGAAGGCGGGCUUCGGUGGCGCGAUAGCGCCAACGUCCUCAACCUCCAAUGCAUCCCACCACAUGAUGAUUCCUGAACAGCCUUGGUUUUUUG [A43C G45A A50G G113U G120C],-1.89
4,GACCAAUCUGCCCUCAGAGCUCGAGAACAUCUUCGGAUGCAGCGGAGGCAGUCUUCGGUGGCGCGAUAGCGCCAACGUCCUCAACCUCCAAUGCAUCCCACCACAUGAUGAUGCCUGAAGAGCCUUGGUUUUUUG [A43C G52U],-3.56
5,GACCAAUCUGCCCUCAGAGCUCGAGAACAUCUUCGGAUGCAGCGGAGGCAGGCUUCGGUGGCGCGAUAGCGCCAACGUCCUCAACCUCCAAGGCAUCCCACCACAUGAUGCUGACUGAAGAGCCUUGGUUUUUUG [A43C U92G A111C C114A],-6.46
6,GACCAAUCUGCCCUCAGAGCUCGAGAACAUCUUCGGAUGCAGCGGAGCCAGGCUUCGGUGGCGCGAUAGCACCAACGUCCUCAACCUCCAAUGCAUCCCACCACAUGAUGAUGCCUGAAGAGCCUUGGUUUUUUG [A43C G48C G71A],-4.5
7,GACCAAUCUGCCCUCAGAGCUCGAGAACAUCUUCGGAUGCAGCGGAGGCAUGCUUUGAUGGCGCGAUAGCGCCAACGUCAUCAACCUCGAAUGCAUCCCAACACAUGAUGAUGCCUGAAGAUACUUAGUUUUUUG [A43C G51U C56U G58A C80A C89G C101A G122U C123A G127A],-6.31
8,GACCAAUCUGCCCUCAGAGCUCGAGAACAUCUUCGGAUGCAGCGGAGGCAGGCUUCGGUGGCGCGAUAGCGCCAACGUCCUCAACCUCCAAUUCAUCCCACCACAUGAUGAUGCCUGAAGAGCCUUGGUUUUUUG [A43C G93U],-2.59
9,GACCAAUCUGCCCUCAGAGCUCGAGAACAUCUUCGGAUGCAGCGGAGGCAGGCUUCGGUGGCGCGAUAGCGCCAACGUCCUCAACCUCCAAUGCAUCCCACCACAUGAUGAUACCUGAAGAGCCUUGGUUUUUUG [A43C G113A],-2.91
10,GACCAAUCUGCCCUCAGAGCUCGAGAACAUCUUCGGAUGCAGCGGAGGCAGGCUUCGGUGGCGCGAUAGCGCCAACGUCCUCAACCUCCAAUGCAUCCCACCACAUGAUGAUGCCUGAAGAGCAGUGGUUUUUUG [A43C C124A U125G],-0.534
11,GACCAAUCUGCCCUCAGAGCUCGAGAACAUCUUCGGAUGCAGGGGAGGCAGGCUUCGGUGGCGCGGUAGCGCCAACGUCCUCAACCUCCAAUGCAUCCCACCACAUGAUGAUGCCUGAAGAGCCUUGGUUUUUUG [A43G A66G],-4.35
12,GACCAAUCUGCCCUCAGAGCUCGAGAACAUCUUCGGAUGCAGCGGAGGCAGGCUUCGGUGGCGCGAUAGCGCCAACGUCCUCAACCACCAAUGCAUCCCACCACAAGAUGAUGCCUGAAGAGCCUUGGUUUUUUG [A43C U87A U106A],-2.43
13,GACCAAUCUGCCCUCAGAGCUCGAGAACAUCUUCGGAUGCAGCGGAGGCAGGCUUCGGUGGCGCGAUAGCGCCAACGUCCUCAACCUCCAAUGCAUCCCACCACAUGAUGAUGCCUAAAGAGCCUUGGUUUUUUG [A43C G117A],-3.01
14,GACCAAUCUGCCCUCAGAGCUCGAGAACAUCUUCGGAUGCAGCGGAGGCAGGCUACGGUGGUGCGAUAGCGCCAACGUCCUCAACCUCCAAUUCAGCCCACCACAUGAUGAUGCCUGAAGAGCCUUGGUUUUUUG [A43C U55A C62U G93U U96G],-4.79
15,GACCAAUCUGCCCUCAGAGCUCGAGAACAUCUUCGGAUGCAGCGGAGGCAGGCUUCGGUGGCGCGAUAACGCCAACGUCCUCAACCUCCAAUGCAUCCCACCACAUGAUGACGCCUGAAGAGCCUUGGUUUUUUA [A43C G69A U112C G135A],-4.59
16,GACCAAUCUGCCCUCAGAGCUCGAGAACAUCUUCGGAUGCAGCGGAGGCAGGCUUCGGUGGCGCGAUAGCGCCAACGUCCUCAACCGCCAAUGCAUCCCACCACAUGAUGAUCCCUGAAGAGCCUUGGUUUUUUG [A43C U87G G113C],-2.52
17,GACCAAUCUGCCCUCAGAGCUCGAGAACAUCUUCGGAUGCAGCGGAGGCAGGCUUCGGUGGCGCGAUAGCGCCAACGUCCUCAAUCUCCAAUGCAUCCCACCACAUGAUGAUGCGUGAAGAGCCUUGGUUUUUUG [A43C C85U C115G],-4.93
18,GACCAAUCUGCCCUCAGAGCUCGAGAACAUCUUCGGAUGCAGCGGAGGAAGGCUUCGGUGGCGCGAUAGCGCCAACGUCCUCAACCUCCAAUGAAUCCCACCACAUGAUGAUGCAUGAAGAGCCUUGGUUUUUUG [A43C C49A C94A C115A],-4.43
19,GACCAAUCUGCCCUCAGAGCUCGAGAACAUCUUCGGAUGCAGCGGAGCCAGGCUUCGGUGGCGCGAUAGCGCCAACGUCCUCAACCUCCAAUGCAUCCCACCACAUGAUGAUGCCUGAAGAGCCUUGGUUUUUUG [A43C G48C],-2.99
20,GACCAAUCUGCCCUCAGAGCUCGAGAACAUCUUCGGAUGCAGCGGAGGCAGGCUUUGGUGGCGCGAUAGCGCCAACGUCCUCAACCUCCAAUGAAUCCCACCACAUGAUGAUGCCUAAAGAGCCUUGGUUUUUUG [A43C C56U C94A G117A],-5.97
21,GACCAAUCUGCCCUCAGAGCUCGAGAACAUCUUCGGAUGCAGGGGAGGCAGGCUUCGGUGGCGGGAUAGCGCCAACGUCCUCAACCGCCAAUGCAUCCCACCACAUGAUAAUGCCUGAAGAGCCUUGGUUUUUUG [A43G C64G U87G G110A],-6.77
